{"source": "patent US20170037111A1", "about": "“Novel peptides and combination of peptides for use in immunotherapy against ovarian cancer and other cancers” (immatics biotechnologies GmbH, priority 2015, published 2017)", "data": [{"molecular_target": "HLA-A*02:01 (Homo sapiens, UniProt P04439, D140Y/D185E/D98H/E176V/E277Q/G131W/G231S/I119V/I121R/I166T/I218V/L300P/L318F/N151K/N90K/P208A/P217A/Q86G/Q94H/R138H/R169H/T345S)", "assay": "MHC binding assay (UV-ligand exchange, β2m ELISA, peptide exchange yield)", "conditions": "MHC class I binding score; binding to HLA-A*02:01 ranged by peptide exchange yield (UV-ligand exchange, β2m ELISA)", "method_in_brief": "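Binding is expressed as peptide exchange yield: stabilized MHC complexes were quantified by β2m ELISA, with a 450 nm TMB read-out on streptavidin-coated plates. Complexes came from UV-ligand exchange, where UV irradiation cleaves a photolabile peptide so the candidate peptide can load.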", "values": [{"substance": "68 (SLMELPRGLFL; listed as Homo sapiens) [compound 68]", "Peptide exchange": "″++++″ (≧75% = ++++)"}, {"substance": "528 (SVAEGRALMSV; listed as Homo sapiens) [compound 528]", "Peptide exchange": "″+++″ (≧50% = +++)"}, {"substance": "235 (YLNDLHEVLL; listed as Homo sapiens) [compound 235]", "Peptide exchange": "″++++″ (≧75% = ++++)"}, {"substance": "385 (SLLEQGLVEA; listed as Homo sapiens) [compound 385]", "Peptide exchange": "″++″ (≧20% = ++)"}, {"substance": "41 (SLMPHIPGL; listed as Homo sapiens) [compound 41]", "Peptide exchange": "″+++″ (≧50% = +++)"}, {"substance": "90 (TLLQIIETV; listed as Homo sapiens) [compound 90]", "Peptide exchange": "″+++″ (≧50% = +++)"}, {"substance": "265 (LLFGGTKTV; listed as Homo sapiens) [compound 265]", "Peptide exchange": "″++″ (≧20% = ++)"}, {"substance": "148 (ALNPEIVSV; listed as Homo sapiens) [compound 148]", "Peptide exchange": "″++″ (≧20% = ++)"}, {"substance": "549 (AMLENASDIKL; listed as Homo sapiens) [compound 549]", "Peptide exchange": "″+++″ (≧50% = +++)"}, {"substance": "29 (KMLGIPISNILMV; listed as Homo sapiens) [compound 29]", "Peptide exchange": "″+++″ (≧50% = +++)"}, {"substance": "500 (SLMEDQVLQL; listed as Homo sapiens) [compound 500]", "Peptide exchange": "″+++″ (≧50% = +++)"}, {"substance": "44 (ILDPISSGFLL; listed as Homo sapiens) [compound 44]", "Peptide exchange": "″++″ (≧20% = ++)"}, {"substance": "453 (KLLEATSAV; listed as Homo sapiens) [compound 453]", "Peptide exchange": "″++″ (≧20% = ++)"}, {"substance": "110 (FLSQVDFEL; listed as Homo sapiens) [compound 110]", "Peptide exchange": "″+++″ (≧50% = +++)"}, {"substance": "355 (SIQQSIERLLV; listed as Homo sapiens) [compound 355]", "Peptide exchange": "″++″ (≧20% = ++)"}, {"substance": "55 (SLLDLETLSL; listed as Homo sapiens) [compound 55]", "Peptide exchange": "″++++″ (≧75% = ++++)"}, {"substance": "134 (YLQELIFSV; listed as Homo sapiens) [compound 134]", "Peptide exchange": "″+++″ (≧50% = +++)"}, {"substance": "317 (SLAALVVHV; listed as Homo sapiens) [compound 317]", "Peptide exchange": "″+++″ (≧50% = +++)"}, {"substance": "504 (GLSDGNPSL; listed as Homo sapiens) [compound 504]", "Peptide exchange": "″++″ (≧20% = ++)"}, {"substance": "305 (SIANFSEFYV; listed as Homo sapiens) [compound 305]", "Peptide exchange": "″++++″ (≧75% = ++++)"}, {"substance": "23 (VLLDDIFAQL; listed as Homo sapiens) [compound 23]", "Peptide exchange": "″+++″ (≧50% = +++)"}, {"substance": "32 (KLDDLTQDLTV; listed as Homo sapiens) [compound 32]", "Peptide exchange": "″++″ (≧20% = ++)"}, {"substance": "205 (SLYPGTETMGL; listed as Homo sapiens) [compound 205]", "Peptide exchange": "″+++″ (≧50% = +++)"}, {"substance": "503 (SLNHFTHSV; listed as Homo sapiens) [compound 503]", "Peptide exchange": "″+++″ (≧50% = +++)"}, {"substance": "340 (ALLSMTFPL; listed as Homo sapiens) [compound 340]", "Peptide exchange": "″++++″ (≧75% = ++++)"}, {"substance": "287 (FLNEFFLNV; listed as Homo sapiens) [compound 287]", "Peptide exchange": "″+++″ (≧50% = +++)"}, {"substance": "598 (FLFPHSVLV; listed as Homo sapiens) [compound 598]", "Peptide exchange": "″+++″ (≧50% = +++)"}, {"substance": "220 (LLQKFVPEI; listed as Homo sapiens) [compound 220]", "Peptide exchange": "″++″ (≧20% = ++)"}, {"substance": "167 (KVLEVTEEFGV; listed as Homo sapiens) [compound 167]", "Peptide exchange": "″+++″ (≧50% = +++)"}, {"substance": "179 (KVLNELYTV; listed as Homo sapiens) [compound 179]", "Peptide exchange": "″+++″ (≧50% = +++)"}, {"substance": "429 (GLVNDLARV; listed as Homo sapiens) [compound 429]", "Peptide exchange": "″++″ (≧20% = ++)"}, {"substance": "362 (TLYGLSVLL; listed as Homo sapiens) [compound 362]", "Peptide exchange": "″+++″ (≧50% = +++)"}]}]}
